According to US20240376198A1 (INHIBRX, published 2024):
Like-named read-outs stand apart in the source and are kept apart here.

T1: mouse NKp46 (mouse, UniProt Q8C567 17-325)
T1 construct: whole, on cells
T1 sequence (looked up): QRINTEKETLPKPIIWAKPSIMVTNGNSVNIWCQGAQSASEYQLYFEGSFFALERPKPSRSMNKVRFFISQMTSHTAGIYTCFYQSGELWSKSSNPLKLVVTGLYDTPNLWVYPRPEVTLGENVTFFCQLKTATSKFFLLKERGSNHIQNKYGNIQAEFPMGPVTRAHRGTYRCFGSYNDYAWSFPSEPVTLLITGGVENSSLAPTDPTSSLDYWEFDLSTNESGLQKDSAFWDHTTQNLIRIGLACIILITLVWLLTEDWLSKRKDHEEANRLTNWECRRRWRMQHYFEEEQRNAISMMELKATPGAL


How the values were obtained:
cynomolgus NKp46 [1] = molecular target: T2, cynomolgus NKp46 (cynomolgus monkey, UniProt Q95JB9 22-306); assay: flow cytometry, HEK293F cells transfected with cyno NKp46
T2 construct: also called cyno NKp46; cynomolgus monkey NKp46
Procedure: (§1) Binding of NKp46-binding polypeptides formatted as VHH-Fc fusion proteins was assessed by flow cytometry. An IgG1-Fc lacking a hinge, or a homodimeric Fc (FIG. 1I-1J) was used (the Fc lacking a hinge is annotated as Fc*). HEK293F cells were transiently transfected with a plasmid encoding full-length human NKp46, cynomolgus NKp46, or mouse NKp46, followed by an IRES and GFP. Transfected cells expressing NKp46 and GFP were used to measure binding of the polypeptides. The transfected cells were plated in a 96-well plate at 30,000 cells per well in FACS buffer (PBS, 1% BSA, 0.1% NaN₃, pH 7.4). Untransfected HEK293F cells were used as a NKp46-negative control and plated at 30,000 cells per well in a separate plate. Test polypeptides were then diluted to two times the final concentration of 1000 nM, and a 3-, 4-, or 5-fold, serial dilution was made. A final column was left with only FACS buffer as a secondary-only control. Test article dilutions were added to an equal volume of cells, and assay plates were incubated for 30 minutes at 4° C. After washing twice with 150 μL. of FACS buffer per well, the cells were resuspended in FACS buffer with α-hFc-647 secondary diluted 1:1000-2000. Assay plates were then left to incubate at 4° C. for 20-30 minutes. After one additional wash with 150 μL of FACS buffer, bound antibody was detected by flow cytometry. Flow cytometric detection was performed on an Intellicyt iQue Plus or Accuri iQue. NKp46 transfected cells were gated on as GFP positive, and polypeptide binding was measured as median fluorescence at 647 nm.

human NKp46 [2] = molecular target: T3, human NKp46 (human, UniProt O76036 22-304); assay: flow cytometry, HEK293F cells transfected with human NKp46
T3 construct: also called CD335; NCR1
Procedure: as §1

mouse NKp46 [3] = molecular target: T1, mouse NKp46; assay: flow cytometry, HEK293F cells transfected with mouse NKp46
Procedure: as §1

cynomolgus NKp46 [4] = molecular target: T2, cynomolgus NKp46; assay: flow cytometry, HEK293F cells transfected with cyno NKp46; remark: listed apart in the source
Procedure: as §1

mouse NKp46 [5] = molecular target: T1, mouse NKp46; assay: flow cytometry, HEK293F cells transfected with mouse NKp46; remark: listed apart in the source
Procedure: as §1

human NKp46 [6] = molecular target: T3, human NKp46; assay: flow cytometry, HEK293F cells transfected with human NKp46; Table 3 experiment; HEK-293 transfected with human NKp46
Procedure: as §1, with “After washing twice with 150 μL. of FACS buffer per well, the cells were resuspended in FACS buffer with α-hFc-647 secondary diluted 1:1000-2000. Assay plates were then left to incubate at 4° C. for 20-30 minutes.” left out, “Flow cytometric detection was performed on an Intellicyt iQue Plus or Accuri iQue.” left out

human NKp46 [7] = molecular target: T3, human NKp46; assay: flow cytometry, HEK293F cells transfected with human NKp46; remark: listed apart in the source
Procedure: as §1

mouse NKp46 [8] = molecular target: T1, mouse NKp46; assay: flow cytometry on HEK-293F cells transfected with full-length mouse NKp46, anti-hFc-647 secondary
Procedure: as §1, with “After washing twice with 150 μL. of FACS buffer per well, the cells were resuspended in FACS buffer with α-hFc-647 secondary diluted 1:1000-2000. Assay plates were then left to incubate at 4° C. for 20-30 minutes.” left out, “Flow cytometric detection was performed on an Intellicyt iQue Plus or Accuri iQue.” left out

human NKp46 [9] = molecular target: T3, human NKp46; assay: flow cytometry on HEK-293F cells transfected with full-length human NKp46, bivalent VHH with homodimeric Fc, anti-hFc-647 secondary
Procedure: as §1, with “After washing twice with 150 μL. of FACS buffer per well, the cells were resuspended in FACS buffer with α-hFc-647 secondary diluted 1:1000-2000. Assay plates were then left to incubate at 4° C. for 20-30 minutes.” left out, “Flow cytometric detection was performed on an Intellicyt iQue Plus or Accuri iQue.” left out

T2 sequence (Q95JB9 22-306 limits assumed): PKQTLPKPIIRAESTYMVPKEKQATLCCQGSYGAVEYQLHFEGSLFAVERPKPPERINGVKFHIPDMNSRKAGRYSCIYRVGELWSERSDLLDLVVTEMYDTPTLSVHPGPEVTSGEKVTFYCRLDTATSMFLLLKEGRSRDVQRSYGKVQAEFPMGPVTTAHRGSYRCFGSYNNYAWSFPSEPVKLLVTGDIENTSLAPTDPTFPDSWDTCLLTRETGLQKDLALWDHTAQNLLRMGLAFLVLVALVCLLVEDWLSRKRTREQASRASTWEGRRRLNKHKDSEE
T3 sequence (O76036 22-304 Q82K): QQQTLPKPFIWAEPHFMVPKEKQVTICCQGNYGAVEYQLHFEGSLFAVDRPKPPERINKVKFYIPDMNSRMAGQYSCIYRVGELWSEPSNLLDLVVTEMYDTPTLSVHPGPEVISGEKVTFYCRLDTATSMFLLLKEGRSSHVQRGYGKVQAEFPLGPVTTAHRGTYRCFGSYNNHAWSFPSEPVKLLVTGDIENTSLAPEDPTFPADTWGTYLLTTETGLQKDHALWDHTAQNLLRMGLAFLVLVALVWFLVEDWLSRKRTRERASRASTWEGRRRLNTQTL

| Binder | Bmax (MFI) (cynomolgus NKp46 [1]) | Kd (cynomolgus NKp46 [1]) | Bmax (MFI) (human NKp46 [2]) | Bmax (MFI) (mouse NKp46 [3]) | Kd (mouse NKp46 [3]) | Bmax (MFI) (cynomolgus NKp46 [4]) | Kd (cynomolgus NKp46 [4]) | Bmax (MFI) (mouse NKp46 [5]) | Kd (mouse NKp46 [5]) | Kd (human NKp46 [6]) | Bmax (MFI) (human NKp46 [7]) | Kd (human NKp46 [7]) | Kd (human NKp46 [2]) | EC50 (read off the curve) (mouse NKp46 [8]) | EC50 (read off the curve) (human NKp46 [9]) |
| --- | --- | --- | --- | --- | --- | --- | --- | --- | --- | --- | --- | --- | --- | --- | --- |
| NKp46-hz5D7v3-Fc* (Fc fusion, VHH-Fc fusion with an IgG1 Fc lacking a hinge (Fc*); also called NKp46-bz5D7v3-Fc*) EVQLVESGGGEVQPGGSLRLSCAASGRTFASAAMGWFRQAPGKEREFVAAISRSDDTYYAESVKGRFTISRDNAKNTVYLQMSSLRAEDTAVYYCAAVVPTYGNNIYVHSAAYNYWGQGTLVTVKPGGGGPSVFLFPPKPKDTLMISRTPEVTCVVVDVSHEDPEVKFNWYVDGVEVHNAKTKPREEQYNSTYRVVSVLTVLHQDWLNGKEYKCKVSNKALPAPIEKTISKAKGQPREPQVYTLPPSRDELTKNQVSLTCLVKGFYPSDIAVEWESNGQPENNYKTTPPVLDSDGSFFLYSKLTVDKSRWQQGNVFSCSVMHEALHNHYTQKSLSLSPG | 19800 MFI | 0.773 nM | 1.27e+06 MFI | 1.17e+06 MFI | 0.685 nM | 51800 MFI | 0.726 nM | 56500 MFI | 0.313 nM | 0.511 nM | 149000 MFI | 0.177 nM | – | – | – |
| NKp46-hz5D7v11-Fc* (Fc fusion, VHH-Fc fusion with an IgG1 Fc lacking a hinge (Fc*)) EVQLVESGGGEVQPGGSLRLSCAASGRTFASAAMGWFRQAPGKEREFVAAISRSDDTYYADSVKGRFTISRDNAKNTVYLQMSSLRAEDTAVYYCAAVVPTYGSNIYVYSAAYNYWGQGTLVTVKPGGGGPSVFLFPPKPKDTLMISRTPEVTCVVVDVSHEDPEVKFNWYVDGVEVHNAKTKPREEQYNSTYRVVSVLTVLHQDWLNGKEYKCKVSNKALPAPIEKTISKAKGQPREPQVYTLPPSRDELTKNQVSLTCLVKGFYPSDIAVEWESNGQPENNYKTTPPVLDSDGSFFLYSKLTVDKSRWQQGNVFSCSVMHEALHNHYTQKSLSLSPG | – | – | 1.05e+06 MFI | 723000 MFI | 1.7 nM | 52300 MFI | 1.84 nM | – | – | – | – | – | 0.189 nM | ~2 nM | – |

Second part, the binder after the results:

| Bmax (MFI) (cynomolgus NKp46 [1]) | Kd (cynomolgus NKp46 [1]) | Bmax (MFI) (human NKp46 [2]) | Bmax (MFI) (mouse NKp46 [3]) | Kd (mouse NKp46 [3]) | Bmax (MFI) (cynomolgus NKp46 [4]) | Kd (cynomolgus NKp46 [4]) | Bmax (MFI) (mouse NKp46 [5]) | Kd (mouse NKp46 [5]) | Kd (human NKp46 [6]) | Bmax (MFI) (human NKp46 [7]) | Kd (human NKp46 [7]) | Kd (human NKp46 [2]) | EC50 (read off the curve) (mouse NKp46 [8]) | EC50 (read off the curve) (human NKp46 [9]) | Binder |
| --- | --- | --- | --- | --- | --- | --- | --- | --- | --- | --- | --- | --- | --- | --- | --- |
| 14300 MFI | 0.252 nM | – | – | – | – | – | 11300 MFI | 6.51 nM | – | 138000 MFI | 0.158 nM | – | ~8 nM | – | NKp46-hz5D7v14-Fc* (Fc fusion, VHH-Fc fusion with an IgG1 Fc lacking a hinge (Fc*)) EVQLVESGGGEVQPGGSLRLSCAASGRTFASAAMGWFRQAPGKEREFVAAISRSDDTYYAESVKGRFTISRDNAKNTVYLQMSSLRAEDTAVYYCAAVVPTYGSSIYVHSAAYNYWGQGTLVTVKPGGGGPSVFLFPPKPKDTLMISRTPEVTCVVVDVSHEDPEVKFNWYVDGVEVHNAKTKPREEQYNSTYRVVSVLTVLHQDWLNGKEYKCKVSNKALPAPIEKTISKAKGQPREPQVYTLPPSRDELTKNQVSLTCLVKGFYPSDIAVEWESNGQPENNYKTTPPVLDSDGSFFLYSKLTVDKSRWQQGNVFSCSVMHEALHNHYTQKSLSLSPG |
| – | – | – | – | – | – | – | – | – | – | – | – | 0.295 nM | – | ~0.3 nM | NKp46-hz5D7v17-Fc (Fc fusion) EVQLVESGGGEVQPGGSLRLSCAASGRTFASAAMGWFRQAPGKEREFVAAISRSDDTYYAESVKGRFTISRDNAKNTVYLQMSSLRAEDTAVYYCAAVVPTYGSNIYVHSAAYNYWGQGTLVTVRPDKTHTCPPCPAPGGPSVFLFPPKPKDTLMISRTPEVTCVVVDVSHEDPEVKFNWYVDGVEVHNAKTKPREEQYNSTYRVVSVLTVLHQDWLNGKEYKCKVSNKALPAPIEKTISKAKGQPREPQVYTLPPSRDELTKNQVSLTCLVKGFYPSDIAVEWESNGQPENNYKTTPPVLDSDGSFFLYSKLTVDKSRWQQGNVFSCSVMHEALHNHYTQKSLSLSPG |
